Test results reported in the RNAGym collection of RNA variant scans (doi:10.1073/pnas.2313332121).
Variants at the floor of the assay were thinned out.

B1: TPR 5TU (parent)
chain: GGAUCUUCUCGAUCUAACAAAAAAGACAAAUCUGCCACAAAGCUUGAGAGCAUCUUCGGAUGCAGAGGCGGCAGCCUUCGGUGGCGCGAUAGCGCCAACGUUCUCAACUAUGACACGCAAAACGCGUGCUCCGUUGAAUGGAGUUUAUCAUG

Variants of: B1
Assay: polymerase ribozyme fitness, log enrichment relative to wild type (log ratio); higher = more active; in vitro selection for triplet polymerase activity
Outline: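 Fitness is a logarithmic measure of how a genotype enriched relative to the wild type, with replicate averages weighted by inverse variance. The logarithm uses base 2, and enrichment came from Illumina sequencing of input and output libraries. Those libraries were PCR-built, transcribed mutants of each subunit of a heterodimeric triplet polymerase ribozyme, passed through one triplicate in vitro selection round that included frozen incubation at −7 °C, gel excision of extended constructs and streptavidin-bead capture. Genotypes were kept only if they had ≥10 input reads and ≥1 read per output.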

Variant	polymerase ribozyme fitness (log ratio)
C57A G58U	0.207
C57A G58A	1.15
U56A U104G A115C A142C	≤ -4.2
C57G C96A	-0.472
U56G C63A A120G	-0.244
U56C C75A G88C C99G	≤ -4.2
C57G C85U	-1.28
U56C U109A	-1.87
C57A A91G	-2.76
U56A C95A C103G C132A U146A	≤ -4.2
U56A C95U C96G A110G A119G G152U	-4.13
U56C C87U	-1.06
C57U C87G	≤ -4.2
C57A C72U A150U	-0.157
U56G C85A C95A	-1.74
C57U C85A G100U A115G U135A G141C	≤ -4.2
C57G G94C A98G C105U	-0.386
U56A U82C C87G A150U	-3.31
U56G U82A A89G C95U G133C	-3.49
U56G C63U C93G	-3.47
C57A C76U	0.264
U56A G58A C72U C87U U109G G136A U144C	-4.13
C57G G80A G84A	-0.169
C57G G86C	-3.04

Variant	polymerase ribozyme fitness (log ratio)
C57G G86A	-1
C57A C75U G92C G140U	≤ -4.2
C57G G71A C96A U146A	-4.05
U56A G128C	-2.8
C57A G59C U146C U148A C149U	-3.99
U56A U127A A138C A142G	-3.48
C57G G83A	-1.02
C57G G83U	-0.732
C57A G124U	-0.787
C57G G58U A137G G143A	-2.87
U56A U134A G143C	-4.04
U56G A73G C87A G94U C118U	≤ -4.2
U56A G141A	0.775
C57U A142C	-0.377
U56A U61A C76G G84A C103G	≤ -4.2
C57G A98U	-0.592
C57G G74C	≤ -4.2
U56A G58A C76U C123U C125G G143A	0.457
U56G C108A	≤ -4.2
C57A A60C C85A	-3.08
U56C C132U	-1.47
C57U A66C G92U C93A	≤ -4.2
U56G C79U U90A A107U C114G	≤ -4.2
U56G C114U	-1.85

Variant	polymerase ribozyme fitness (log ratio)
C57A A89U A98G	0.118
C57U C85U G143A	-0.317
U56A G71U U78G C85U G143U	≤ -4.2
U56A C96U A138U	-4.06
C57G G68U G94U C116G	≤ -4.2
C57U A73G G84C C95A C118G	-2.62
U56A C93A	-2.63
U56A C93U	-2.13
U56A C93G	-3.55
C57A G84U	-1.29
U56A G58C G92U C93A C118A	-3.82
U56A C125G	-1.56
C57A G58A C79U G88U	≤ -4.2
U56A G84A U90C C125A	≤ -4.2
C57A C95U C149U	-0.536
C57G	-0.448
C57A	-0.00233
C57U	-0.0371
U56C C76A A122G	-0.262
U56A G88U C114A	≤ -4.2
U56C G58A G84A U145G	0.113
U56A U61G A91C U127C U148C A150U	≤ -4.2
C57G A91G	-4.08
C57U C85A G100U A138G	≤ -4.2

Variant	polymerase ribozyme fitness (log ratio)
C57G A91G A147C	-3.13
U56C G143U	-2.95
C57A G94A	-0.487
U56A G58A A89C C95G A122C G124C G141C	-1.54
U56A G62A C76U G81A C87U C95U	-1.49
C57A U90A A91U A138U	≤ -4.2
C57U C75U	0.237
C57U C75G	-3.63
U56C U109A U127C	-3.65
U56A G88U U104C G124U	≤ -4.2
C57A U104G A120U	-0.824
C57A G86A U146G	-1.4
C57A G62C C76U A91U C108U G140U U144G C149G	≤ -4.2
C57A G84U A89U G92U C118U U151A	≤ -4.2
C57U C69G G84A C85G	≤ -4.2
U56A G58A C87G G133U	≤ -4.2
C57A A150U	1.72
U56A G70C	-3.24
C57G G143C	-1.72
C57G G92U	-0.526
C57A U78G A97G G117A A122G	≤ -4.2
C57G G67C	-4.16
U56A G58U C69U C95A C96A C118U	-2.19
U56G G71C C85U C116A	≤ -4.2

Variant	polymerase ribozyme fitness (log ratio)
U56C C108U	-4.01
U56A C125U A142C	-3.74
U56G C93U	-3.02
C57G C96A U139G	-0.754
C57U A64U C114U	≤ -4.2
C57U A138U U145G	-3.98
C57A A113C A119U	-1.37
U56A U61A C96U U101A	-1.95
C57G C75U C108A A110G	≤ -4.2
U56A G58U A115G	-0.802
U56A G74C	-4.17
U56C C87U A89G U101G	-2.81
C57A G88U A120C G124A C149A	≤ -4.2
C57A G86U C123U C125U	-0.745
U56G U78C C85A C123U	-1.43
C57G G58A A60G A137U	-4.15
C57A A60G G74U	-4.12
C57G C79U	-2.13
C57G A91G G100A C123A C131A	≤ -4.2
C57U A97G G128C G141C	-3.99
C57U A66C	-3.93
U56G G88U G92U C96U C125A	-3.87
C57G C95U	-1.18
C57G G86A C95U C99U G141U	-3.92

Variant	polymerase ribozyme fitness (log ratio)
C57A U135C	-1.62
U56A C96G U139G	-0.96
U56A G70C U78A U82A C131A	≤ -4.2
C57U C79G	-3.67
C57G A120U U144A	-1.24
U56G C76A U77C C93G C105A U109G	≤ -4.2
U56G G92U A97U C105U	-1.61
C57G C76A C95U C129G A137C U144G	≤ -4.2
U56A G92A U148G	≤ -4.2
U56A G92C U139A G140U	-3.76
U56G C85G	-2.54
C57A A64G A66G C118U A147C G152U	≤ -4.2
C57G C114U	-1.83
C57G C114A	-3.32
U56G C87A C103U C114U C125U	≤ -4.2
C57U A113C	-2.27
U56A G88C A142U	≤ -4.2
U56A U148G	-3.6
U56G G68U	≤ -4.2
U56G G100U U134A U146A U148A	≤ -4.2
C57U C85G A142C A150G	≤ -4.2
C57G G83C C85U A119G	-1.44
C57A G70A G86U C96A C99U U134C U146C	≤ -4.2
U56A G80U C99A A122C	-1.16

Variant	polymerase ribozyme fitness (log ratio)
C57A C87U C103G	-2.01
U56A G88U	-3.06
U56A G88C	-4.12
C57A U139A	-3.84
U56A G83U C93G	≤ -4.2
U56A C93A A98U A107G C129U	≤ -4.2
U56G G58C C99G	-2.63
C57U C85U A89C U127A	-4.18
U56A C96U	-0.499
C57A U127A	-3.56
U56A U82G	0.243
C57U C85A G133C G136A	-1.86
U56A G58C C93U U127G U145A	-3.83
C57A C76G A113G G126A C129A U134G	≤ -4.2
C57A C93U	-1.11
C57A C93G	-3.05
C57G A89G C93A	≤ -4.2
C57A C114U	-1.45
C57G C72G C79U C103G	≤ -4.2
C57A G92U	-0.638
U56C C85A C131G	-3.7
C57A A64C C85A C95U U130A A147U	≤ -4.2
U56A C93U C116U	-1.11
